{
  "source": "patent US20260193344A1",
  "about": "(H LUNDBECK A S, published 2026)",
  "binders": {"B1": {"name": "Ab6 (antibody, V domains shown)", "VH": "QSVEESGGRLVTPGTPLTLTCTVSGFSLTDYAMSWVRQAPGEGLEWIGIISDSGSTYYASWAKGRFTFSKTSTTVDLRITSPTTEDTATYFCAREPEYGYDEYGDWVSDLWGPGTLVTVSS", "VL": "DIVMTQTPASVEAAVGGAVTIKCQATQSIGNNLAWYQQKPGQPPKLLIYRASTLASGVPSRFKGSGSGTEFTLTISDLECADAATYYCQSYYYSSSITYHNAFGGGTEVVVKR"}, "B2": {"name": "Ab3 (antibody, V domains shown)", "VH": "QSLEESGGRLVTPGTPLTLTCTVSGSSLSNFDMIWVRQAPGKGLESIGIIYDFGSTYYASWAKGRFTISRTSSTTVDLKIISPTIEDTATYFCVKGVSNIWGQGTLVTVSS", "VL": "DVVMTQTPASVEAAVGGTVTIKCQASEDISSNLAWYQQKLGQPPKLLIYSASTLASGVPSRFKGSGSGTEFTLAISDLECADAATYYCQSYDGSSSSSYGIGFGGGTEVVVKR"}, "B3": {"name": "Ab2 (antibody, V domains shown)", "VH": "QSVEESGGRLVTPGTPLTLTCTVSGFSLSKYDMIWVRQAPGKGLESIGIIYDDGDTYYASWAKGRFTISQTSTTVDLKIISPTTEDTATYFCVKGVSNIWGQGTLVTVSS", "VL": "B2 VL with E27Q, D28S, S31N, N32Y, L40T, A74T, D92E, I101V"}, "B4": {"name": "Ab13.H (antibody, human IgG1, kappa, N297A, V domains shown)", "VH": "EVQLVESGGGLVQPGGSLRLSCAASGFTVSSGYDICWVRQAPGKGLEWIGCIDTGSGNTYYASSAKGRFTMSRDNSKNTVYLQMNSLRAEDTAVYYCAKGISSIWGQGTLVTVSS", "VL": "DIQMTQSPSTLSASVGDRVTITCQASQTISSDLAWYQQKPGKAPKLLIYAASKLTSGVPSRFSGSGSGTEFTLTISSLQPDDFATYYCQTYYDIIDDGATFGGGTKVEIKR"}, "B5": {"name": "Ab13 (antibody, human IgG1, kappa, N297A, V domains shown)", "VH": "QQLEESGGGLVKPGGTLTLTCTASGFSFSSGYDICWARQGPGKGLEWIGCIDTGSGNTYYASWAKGRFTMSRTSSTTVTLQVTSLTAADTATYFCAKGISSIWGPGTLVTVSS", "VL": "DIVMTQTPASVSEPVGGTVTIKCQASQTISSDLAWYQQKPGQPPKLLIYAASKLTSGVSSRFKGGGTGTQFTLTISDLECADAATYYCQTYYDIIDDGCTFGGGTEVVVKR"}, "B6": {"name": "Ab7 (antibody, V domains shown)", "VH": "B1 VH with T29S, D30S, F68I, E102D, P113Q", "VL": "B1 VL with A18T, T26S, G30S, N31D, N32Y, A34S, E70Q, H100R", "notes": "Full-length rabbit/human chimeric antibody, HEK-293"}, "B7": {"name": "Ab9 (antibody, V domains shown)", "VH": "B1 VH with T29N, D30S, S55R, F68I, R78K, E102D", "VL": "B1 VL with I2V, A18T, T26S, G30S, N31S, N32Y, A34S, E70Q, H100R"}, "B8": {"name": "Ab5 (antibody, V domains shown)", "VH": "B1 VH with T29S, D30S, F68I, R78K, E102D, P113Q", "VL": "DIVMTQTPASVSEPVGGTVTIKCQASQSISSYLSWYQQKPGQPPKLLIYRASTLASGVPSRFKGSGSGTQFTLTISDLECADAATYYCQSYYYSSSITYRNAFGGGTEVVVKR"}, "B9": {"name": "Ab1 (antibody, V domains shown)", "VH": "B3 VH with E4K, K30N, I49M, Q70K, I99H, Q102P", "VL": "B2 VL with E27Q, D28S, N32Y, L40P, S65R, A74T, S96G, I101V", "notes": "as for B6"}, "B10": {"name": "Ab12 (antibody, V domains shown)", "VH": "B3 VH with F26S, K30D, S60T, Q70K, K78R, I99M, Q102P", "VL": "DVVMTQTPSSVSAAVGGTVTIKCQASQSIGSSLAWYQQKPGQRPKLLIYAASTLASGVPSRFKGSGSGTEFTLTISDLECADAATYYCQSYDGSSSSSYGVGFGGGTEVVVKR"}, "B11": {"name": "Ab10 (antibody, V domains shown)", "VH": "B3 VH with K30S, Y31A, I49M, S60T, Q70K, N98S, I99V", "VL": "B2 VL with K22N, D28N, S30Y, S31R, N32S, L40P, A74T, I101V"}, "B12": {"name": "Ab11 (antibody, V domains shown)", "VH": "QSLEESGGRLVTPGTSLTLTCTASGFSLSAYDILWVRQAPGKGLESIGMMYDDGDTYYATWAKGRFIISRTSTTMDLKIISPTTEDTATYFCVKGVSNIWGQGTLVTVSS", "VL": "B2 VL with V2I, T7I, E27Q, D28S, S30D, N32S, L40P, A74T, S76G, S98Y"}},
  "note": "Where a chain is given by its changes, count along the chain named.",
  "data": [
    {"target": "T1, ACTH 1-24 (human)", "T1 peptide": "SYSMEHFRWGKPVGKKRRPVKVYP", "assay": "cell-based or functional assay", "units": {"IC50, ACTH 1-24 induced cAMP, MC2R cells": "nM"}, "values": [
      {"binder": "B1", "IC50, ACTH 1-24 induced cAMP, MC2R cells": 0.1},
      {"binder": "B2", "IC50, ACTH 1-24 induced cAMP, MC2R cells": 0.8},
      {"binder": "B3", "IC50, ACTH 1-24 induced cAMP, MC2R cells": 1.3},
      {"binder": "B4", "IC50, ACTH 1-24 induced cAMP, MC2R cells": 0.3},
      {"binder": "B5", "IC50, ACTH 1-24 induced cAMP, MC2R cells": 1}
    ]},
    {"target": "T2, human alpha-MSH (ACTH 1-13) (human, not fully specified; ends and bridges not checked)", "T2 peptide": "Ac-SYSMEHFRWGKPV-NH2", "assay": "SPR (ProteOn XPR36), antibody immobilized", "units": {"kon": "M⁻¹ s⁻¹"}, "description": "(§1) Antibody was immobilized to the surface of general amine coupling (GLC or GLM) Chips (Bio-Rad). […] Surfaces were regenerated between analyte queries using 10 mM glycine at pH 2.0.", "values": [
      {"binder": "B6", "kon": 130000}
    ]},
    {"target": "T3, human ACTH 1-39 (human, not fully specified; N-terminal biotin in the ELISA and HTRF binding assays (p-1487, p-1488); 125I on Tyr23 in Example 9 (p-1542); unlabelled in SPR. Letters unchanged.)", "T3 peptide": "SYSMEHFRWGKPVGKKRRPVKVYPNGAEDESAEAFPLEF", "assay": "cell-based or functional assay", "units": {"IC50, ACTH-induced cortisol, Y1 cells": "nM"}, "values": [
      {"binder": "B6", "IC50, ACTH-induced cortisol, Y1 cells": 2.49},
      {"binder": "B1", "IC50, ACTH-induced cortisol, Y1 cells": 1.44},
      {"binder": "B7", "IC50, ACTH-induced cortisol, Y1 cells": 3.47},
      {"binder": "B8", "IC50, ACTH-induced cortisol, Y1 cells": 3.49},
      {"binder": "B9", "IC50, ACTH-induced cortisol, Y1 cells": 2.36},
      {"binder": "B10", "IC50, ACTH-induced cortisol, Y1 cells": 2.68},
      {"binder": "B2", "IC50, ACTH-induced cortisol, Y1 cells": 7.72},
      {"binder": "B11", "IC50, ACTH-induced cortisol, Y1 cells": 5.98},
      {"binder": "B12", "IC50, ACTH-induced cortisol, Y1 cells": 1.53}
    ]},
    {"target": "T3, human ACTH 1-39", "assay": "cell-based or functional assay", "remark": "another data set of the same source", "units": {"IC50, ACTH-induced cAMP, MC2R cells": "nM"}, "values": [
      {"binder": "B6", "IC50, ACTH-induced cAMP, MC2R cells": 0.09},
      {"binder": "B1", "IC50, ACTH-induced cAMP, MC2R cells": 0.03},
      {"binder": "B7", "IC50, ACTH-induced cAMP, MC2R cells": 0.12},
      {"binder": "B8", "IC50, ACTH-induced cAMP, MC2R cells": 0.11},
      {"binder": "B9", "IC50, ACTH-induced cAMP, MC2R cells": 0.14},
      {"binder": "B10", "IC50, ACTH-induced cAMP, MC2R cells": 0.05},
      {"binder": "B2", "IC50, ACTH-induced cAMP, MC2R cells": 0.29},
      {"binder": "B11", "IC50, ACTH-induced cAMP, MC2R cells": 0.16},
      {"binder": "B12", "IC50, ACTH-induced cAMP, MC2R cells": 0.03},
      {"binder": "B3", "IC50, ACTH-induced cAMP, MC2R cells": 0.25}
    ]},
    {"target": "T3, human ACTH 1-39", "assay": "cell-based or functional assay", "remark": "another data set of the same source", "units": {"IC50, ACTH-induced cAMP reporter, MC1R cells": "nM"}, "values": [
      {"binder": "B6", "IC50, ACTH-induced cAMP reporter, MC1R cells": 1.29},
      {"binder": "B1", "IC50, ACTH-induced cAMP reporter, MC1R cells": 1.04},
      {"binder": "B8", "IC50, ACTH-induced cAMP reporter, MC1R cells": 1.96},
      {"binder": "B9", "IC50, ACTH-induced cAMP reporter, MC1R cells": 2.38},
      {"binder": "B10", "IC50, ACTH-induced cAMP reporter, MC1R cells": 1.66},
      {"binder": "B2", "IC50, ACTH-induced cAMP reporter, MC1R cells": 4.12},
      {"binder": "B11", "IC50, ACTH-induced cAMP reporter, MC1R cells": 2.14},
      {"binder": "B12", "IC50, ACTH-induced cAMP reporter, MC1R cells": 1.49},
      {"binder": "B3", "IC50, ACTH-induced cAMP reporter, MC1R cells": 3.62}
    ]},
    {"target": "T3, human ACTH 1-39", "assay": "cell-based or functional assay", "remark": "another data set of the same source", "units": {"IC50, ACTH-induced cAMP, MC3R cells": "nM", "IC50, ACTH-induced cAMP, MC4R cells": "nM", "IC50, ACTH-induced cAMP, MC5R cells": "nM"}, "values": [
      {"binder": "B6", "IC50, ACTH-induced cAMP, MC3R cells": 64.2, "IC50, ACTH-induced cAMP, MC4R cells": 49.7, "IC50, ACTH-induced cAMP, MC5R cells": 1100},
      {"binder": "B1", "IC50, ACTH-induced cAMP, MC3R cells": 62.8, "IC50, ACTH-induced cAMP, MC4R cells": 55.2, "IC50, ACTH-induced cAMP, MC5R cells": 1000},
      {"binder": "B8", "IC50, ACTH-induced cAMP, MC3R cells": 58.1, "IC50, ACTH-induced cAMP, MC4R cells": 43.4, "IC50, ACTH-induced cAMP, MC5R cells": 1000},
      {"binder": "B9", "IC50, ACTH-induced cAMP, MC3R cells": 101, "IC50, ACTH-induced cAMP, MC4R cells": 56.4, "IC50, ACTH-induced cAMP, MC5R cells": 1100},
      {"binder": "B2", "IC50, ACTH-induced cAMP, MC3R cells": 58.7, "IC50, ACTH-induced cAMP, MC4R cells": 54.2, "IC50, ACTH-induced cAMP, MC5R cells": 1100},
      {"binder": "B11", "IC50, ACTH-induced cAMP, MC3R cells": 133, "IC50, ACTH-induced cAMP, MC4R cells": 66.3, "IC50, ACTH-induced cAMP, MC5R cells": 5400},
      {"binder": "B12", "IC50, ACTH-induced cAMP, MC3R cells": 108, "IC50, ACTH-induced cAMP, MC4R cells": 49.4, "IC50, ACTH-induced cAMP, MC5R cells": 4200},
      {"binder": "B3", "IC50, ACTH-induced cAMP, MC3R cells": 79, "IC50, ACTH-induced cAMP, MC4R cells": 54.5, "IC50, ACTH-induced cAMP, MC5R cells": 1100}
    ]},
    {"target": "T3, human ACTH 1-39", "assay": "SPR (ProteOn XPR36), antibody immobilized", "units": {"kon": "M⁻¹ s⁻¹"}, "description": "as §1", "values": [
      {"binder": "B9", "kon": "1e+06"}
    ]}
  ]
}
